# Patent US10010616B2, “Immunogenic compositions and reagents for preparing” (PURDUE RESEARCH FOUNDATION, priority 2011, dated 2018)
# Experiments:
# [1] = Adsorption isotherm on aluminum hydroxide adjuvant; assay type: binding; details: Rehydragel HPA aluminum hydroxide 20-26 μg/mL, 4° C., micro BCA assay
# Description: The phosphorus containing groups described herein bind adjuvants. Compounds containing a phosphorus containing group and a UV chromophore are prepared and quantitative binding data are obtained as adsorption isotherms. Briefly, Rehydragel HPA aluminum hydroxide was suspended (113 μg/mL) in buffer, and varying concentrations of each of compounds E, F, G, and H are added. The suspensions are allowed to equilibrate, and the concentration of each compound in solution at equilibrium is measured. The amount of compound adsorbed (weight/weight) is plotted against the concentration in solution to generate the adsorption isotherm. Adsorption capacity and adsorptive coefficient are calculated for each compound by double reciprocal analysis; the results are summarized in the following table.
# Compound B is coupled to egg white lysozyme. […] After centrifugation, the protein concentration in the supernatant is measured by a standard micro bicinchoninic acid protein assay procedure. […]
# Adsorption of Compound H (Egg white Lysozyme/Compound B conjugate) by Aluminum Hydroxide. […] The supernatant was analyzed in triplicate for compound H concentration by the micro bicinchoninic acid (BCA) assay. The amount of compound H adsorbed was determined by subtracting the amount remaining in the supernatant from the amount initially present. […]
# Mice = assay: Anti-lysozyme antibody response in mice, conjugated vs unconjugated lysozyme; assay type: in vivo; details: 10 μg dose, FIG. 2
# Description: Compound B-Lysozyme-P2 is prepared in a similar manner using a greater excess of conjugating agent compound B. To determine the magnitude of immunogenic enhancement for the linker-modified protein, a dose response is evaluated comparing a range of doses of compound B-Lysozyme-P2 and AH, to a range of doses of unmodified hen egg lysozyme and AH, according to the following table:
# Mice are injected on day 0 and day 21. Blood is collected on day 21 and on day 35. Serum anti-lysozyme IgG and anti-lysozyme IgG subclasses are measured by ELISA assay.
# Dose response comparison of conjugated and unconjugated lysozyme immunological response. […] preparations are investigated: (A), lysozyme alone (10 μg dose); (B), lysozyme (10 μg dose)+AH; (C), lysozyme-P2 (2 conjugate load, 10 μg dose)+AH; (D) lysozyme (1 μg dose)+AH; (E), lysozyme-P2 (1 μg dose)+AH.
# [2] = reported, Hem et al., Vaccine 1995; cited from earlier work
substance,measurement,setting,value
"lysozyme: egg white lysozyme (16 kDa MW), unmodified",Affinity for aluminum hydroxide (in words),[1],poor electrostatic binding with aluminum hydroxide
same,anti-lysozyme antibody production,Mice,does not show a significant induction of antibody response
same,Complexation by aluminum hydroxide (in words),[2],negligibly complexed
